Key:
[1] = biological target: T1, β3 integrin (Homo sapiens, UniProt P05106); experiment: Integrin co-immunoprecipitation assay, Western blot for β3 integrin; format: binding; conditions: human fibroblast lysates, nickel beads
T1 construct: endogenous in cells; host or cells: Normal Human Dermal Fibroblasts (NHDF), 1% TX-100 lysate
Method: (§1) A T-175 flask of NHDFs was grown to complete confluence, washed three times in MES buffer and lysed in 1 mL MES buffer+1% TX-100 (a detergent). Lysate was spun at 10,000 g for 10 minutes to remove cell debris. Cell lysate (350 μL) was then incubated with 20 μg gBDLD for 4 hours at 4° C. The lysate+gBDLD mixture was then incubated with 50 μL Ni beads overnight at 4° C. Nickel beads were then washed three times and protein eluted by boiling and then adding reducing SDS-PAGE buffer. Proteins were separated by SDS-PAGE and Western blotted for β1 integrin (Chemicon-1965) or β3 (Chemicon) as previously described.^48
(§2) To identify the cellular receptor for gBDLD we performed co-immunoprecipitation studies. Briefly, gBDLD was incubated with human fibroblast lysates and pulled down with nickel-conjugated agarose beads.
(§3) Because gBDLD contains a known β1 integrin binding motif, gBDLD bound to its cellular receptor was isolated by SDS-PAGE and then Western blotted for either β1 or β3 integrin. The resulting gels are shown in FIG. 10 (β1) and FIG. 11 (β3).

[2] = biological target: T2, β1 integrin (Homo sapiens, UniProt P05556); experiment: Integrin co-immunoprecipitation assay, Western blot for β1 integrin; format: binding; conditions: human fibroblast lysates, nickel beads
T2 construct: endogenous in cells; host or cells: Normal Human Dermal Fibroblasts (NHDF), 1% TX-100 lysate
Method: as §1, §2, §3

[3] = biological target: Normal human dermal fibroblasts; experiment: Protein binding assay: gBDLD binding to human fibroblasts (His-tag ELISA)
Method: Normal human dermal fibroblasts were chilled to 4° C., washed three times with cold MES buffer and blocked with 1 mg/mL bovine serum albumin (BSA) for 30 minutes at 4° C. Unbound BSA was removed with cold MES washes (×4). The indicated amounts of gBDLD were added to each well for 90 minutes at 4° C. Cells were then washed three times with cold MES, twice with cold (phosphate-buffered saline (PBS) and fixed with 3% paraformaldehyde. An ELISA was then performed probing with anti-His rabbit polyclonal antibody (Santa Cruz Biotechnology, Santa Cruz, Calif.) and anti-rabbit HRP (Pierce). Absorbance was measured at 405 nm.
FIG. 7 is a graph depicting the results of a gBDLD binding assay (performed as described previously). Here, binding was measured by absorbance at 405 nm. […] To generate the data, human fibroblasts were incubated with gBDLD for the indicated times at 4° C. Cells were then washed, fixed and an ELISA was performed probing for the gBDLD […] his-tag. […]
FIG. 8 is a graph depicting gBDLD binding to human fibroblasts. As is readily apparent from FIG. 8, this binding is dose-dependent and saturable. […] After three IVIES washes and two PBS washes, cells were fixed in 3% paraformaldehyde and a His-tag ELISA was performed to quantitate gBDLD bound to cells.

[4] = system: diI-labeled HCMV; format: cell-based, Human cytomegalovirus; conditions: gBDLD or BSA 320 μg/mL, soluble heparin 50 μg/mL; 24 hours post-infection
[5] = system: NHDF cells; experiment: Cytoskeletal rearrangement in NHDF cells (actin staining with phalloidin); format: cell-based, human; conditions: compared to buffer alone
Source text: gBDLD Triggers Cytoskeletal Rearrangements: β1 integrins are known inducers of broad signal transduction events. […] To test the role of gBDLD in mediating signaling events, we stimulated NHDF cells with buffer alone, gBDLD, or a known cytoskeletal reorganizer (EGF), followed by actin staining with phalloidin.

[6] = Solubility of gBDLD in MES buffer; format: physicochemical; conditions: 55 mM MES, pH 5.5, 300 mM NaCl
Method: DNA sequence corresponding to amino acids 57-146 of HCMV AD169 glycoprotein B disintegrin-like domain (“gBDLD”) was cloned into the bacterial expression vector pET-28a containing an N-terminal His-Tag with thrombin cleavage site and kanamycin resistance. (Commercially available from Novagen, San Diego, Calif.) gBDLD production was induced by the addition of 1 mM isopropyl-βD-thiogalactopyranoside (IPTG). E. coli Tuner strain containing pET-28a:gBDLD was grown at 37° C. in Luria-Bertani medium containing kanamycin (50 μg/mL) to an optical density at 600 nm of approximately 0.6. IPTG (1 mM) was added and the plates were incubated continuously for 4 h at 37° C. Cells were harvested by centrifugation at 4000 r/min for 10 min and pellets were resuspended in 1% Triton X-100/Ni-NTA buffer (300 mM NaCl/50 mM Tris-HCL pH 7.9) and lysed by 3×60 s bursts of sonication. The lysate was centrifuged at 15,000 r/min for 15 minutes at 4° C. The 8M urea/Ni-NTA fraction was then poured into a chromatography column containing nickel-nitriloacetic acid agarose (Ni-NTA) beads at 4° C. and allowed to flow through. […] Fractions containing protein were determined by measuring the absorbance of each fraction at 214 nm. Fractions that corresponded to absorption peaks were analyzed by sodium dodecyl sulfate polyacrylamide electrophoresis (SDS-PAGE) to determine the size of the protein. […]

T1 sequence (P05106 27-788): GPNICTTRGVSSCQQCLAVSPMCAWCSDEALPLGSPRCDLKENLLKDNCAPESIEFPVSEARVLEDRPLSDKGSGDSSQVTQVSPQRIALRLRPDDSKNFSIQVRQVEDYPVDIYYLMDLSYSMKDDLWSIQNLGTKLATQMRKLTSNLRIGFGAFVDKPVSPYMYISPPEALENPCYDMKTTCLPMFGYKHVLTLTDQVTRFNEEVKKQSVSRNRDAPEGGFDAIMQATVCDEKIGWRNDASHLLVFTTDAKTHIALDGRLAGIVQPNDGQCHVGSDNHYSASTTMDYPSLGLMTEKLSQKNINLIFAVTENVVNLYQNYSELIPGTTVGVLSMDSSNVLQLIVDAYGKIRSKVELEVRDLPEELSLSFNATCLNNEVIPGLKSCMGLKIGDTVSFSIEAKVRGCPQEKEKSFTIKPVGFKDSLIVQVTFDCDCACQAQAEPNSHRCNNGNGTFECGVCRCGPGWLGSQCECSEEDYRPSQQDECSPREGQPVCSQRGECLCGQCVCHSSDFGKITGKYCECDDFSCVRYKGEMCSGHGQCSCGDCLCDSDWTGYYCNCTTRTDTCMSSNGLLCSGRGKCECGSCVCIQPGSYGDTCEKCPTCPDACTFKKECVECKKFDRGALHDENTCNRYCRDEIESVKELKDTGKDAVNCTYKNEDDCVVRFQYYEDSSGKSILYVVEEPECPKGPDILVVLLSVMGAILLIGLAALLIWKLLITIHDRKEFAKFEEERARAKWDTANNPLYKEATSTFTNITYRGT
T1 sequence (P06756 31-889 partner limits assumed): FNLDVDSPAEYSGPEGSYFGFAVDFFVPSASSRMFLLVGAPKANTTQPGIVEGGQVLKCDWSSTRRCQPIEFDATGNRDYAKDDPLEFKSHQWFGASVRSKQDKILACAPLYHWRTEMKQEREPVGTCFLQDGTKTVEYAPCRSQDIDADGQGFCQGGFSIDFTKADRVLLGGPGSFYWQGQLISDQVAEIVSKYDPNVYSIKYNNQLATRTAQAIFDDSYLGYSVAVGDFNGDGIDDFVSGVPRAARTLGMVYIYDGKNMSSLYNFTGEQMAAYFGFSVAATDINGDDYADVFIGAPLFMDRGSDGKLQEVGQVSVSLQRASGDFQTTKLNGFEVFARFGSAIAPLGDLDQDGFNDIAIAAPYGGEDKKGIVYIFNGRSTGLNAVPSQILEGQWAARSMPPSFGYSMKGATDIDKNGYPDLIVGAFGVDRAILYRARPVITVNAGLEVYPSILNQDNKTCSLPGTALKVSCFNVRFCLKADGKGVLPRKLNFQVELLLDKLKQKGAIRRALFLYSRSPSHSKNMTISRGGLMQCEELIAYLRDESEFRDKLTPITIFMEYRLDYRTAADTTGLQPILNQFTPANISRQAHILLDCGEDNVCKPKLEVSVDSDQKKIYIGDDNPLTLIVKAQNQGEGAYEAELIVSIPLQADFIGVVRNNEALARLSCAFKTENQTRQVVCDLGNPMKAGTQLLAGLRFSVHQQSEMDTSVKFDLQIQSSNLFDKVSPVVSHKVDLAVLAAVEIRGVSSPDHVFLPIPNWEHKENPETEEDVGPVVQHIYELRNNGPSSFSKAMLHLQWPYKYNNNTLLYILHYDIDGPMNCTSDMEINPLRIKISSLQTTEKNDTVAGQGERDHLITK
T1 sequence (P06756 891-1048 partner limits assumed): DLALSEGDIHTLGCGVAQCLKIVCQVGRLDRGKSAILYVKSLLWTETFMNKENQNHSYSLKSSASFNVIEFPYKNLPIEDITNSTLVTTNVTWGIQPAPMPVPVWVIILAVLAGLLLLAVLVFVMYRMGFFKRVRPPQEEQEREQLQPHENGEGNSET
T2 sequence (P05556 21-798): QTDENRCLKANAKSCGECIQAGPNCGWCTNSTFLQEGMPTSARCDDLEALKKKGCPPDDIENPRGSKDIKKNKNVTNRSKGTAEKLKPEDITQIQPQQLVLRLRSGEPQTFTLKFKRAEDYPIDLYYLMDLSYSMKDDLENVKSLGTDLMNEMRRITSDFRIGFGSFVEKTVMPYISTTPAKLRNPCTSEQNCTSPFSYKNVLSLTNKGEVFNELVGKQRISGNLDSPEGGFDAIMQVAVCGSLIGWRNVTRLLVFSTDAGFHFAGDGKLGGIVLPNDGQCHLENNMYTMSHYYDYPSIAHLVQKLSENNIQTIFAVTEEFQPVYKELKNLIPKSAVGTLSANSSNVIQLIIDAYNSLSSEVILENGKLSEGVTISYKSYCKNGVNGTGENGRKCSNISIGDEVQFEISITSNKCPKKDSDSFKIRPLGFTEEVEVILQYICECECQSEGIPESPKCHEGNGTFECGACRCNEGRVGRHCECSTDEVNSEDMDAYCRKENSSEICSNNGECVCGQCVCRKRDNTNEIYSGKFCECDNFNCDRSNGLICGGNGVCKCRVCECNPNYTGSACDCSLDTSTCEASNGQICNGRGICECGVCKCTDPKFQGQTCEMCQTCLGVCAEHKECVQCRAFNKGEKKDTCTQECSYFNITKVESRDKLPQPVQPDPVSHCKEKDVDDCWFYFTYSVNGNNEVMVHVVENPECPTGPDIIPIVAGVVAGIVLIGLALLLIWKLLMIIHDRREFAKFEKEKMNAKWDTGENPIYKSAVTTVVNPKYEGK

B1: gBDLD: amino acids 57-146 of HCMV AD169 glycoprotein B disintegrin-like domain, His-tagged, expressed in E. coli (protein)
chain: VTSSEAVSHRANETIYNTTLKYGDVVGVNTTKYPYRVCSMAQGTDLIRFERNIICTSMKPINEDLDEGIMVVYKRNIVAHTFKVRVYQKV
modifications: left off: small tags and cut ends
notes: amino acids 57-146 of HCMV AD169 glycoprotein B disintegrin-like domain, His-tagged, expressed in E. coli
- interaction with β3 integrin (pull down) [1]: does not interact with β3 integrins
- interaction with β1 integrin (pull down) [2]: interacts with β1 integrins
- kinetics of gBDLD binding to human fibroblasts ([3]; 4° C., absorbance at 405 nm): rapid kinetics
- concentration at which binding to fibroblast monolayers reached saturation ([3]; 60 minutes, after BSA blocking): 12.5 µg/mL
- block of HCMV fusion and gene expression [4]: complete block of HCMV fusion and gene expression
- reorganization of the cytoskeleton [5]: triggered a dramatic reorganization of the cytoskeleton
- Solubility [6]: approximately 1 mg/mL
